In patent US20140349310A1 one finds Mean fluorescence data, which are given here for 1 substance.

This assay deals with human c-Met on the surface of human tumor cells (human) (UniProt P08581). The assay can be described thus: FACS on tumor cells (cell line not named on the sheet), PE-labelled isotype control, FL2 Log; unstained cells 3.48.
Sequence of human c-Met on the surface of human tumor cells (human) (P08581 25-1390): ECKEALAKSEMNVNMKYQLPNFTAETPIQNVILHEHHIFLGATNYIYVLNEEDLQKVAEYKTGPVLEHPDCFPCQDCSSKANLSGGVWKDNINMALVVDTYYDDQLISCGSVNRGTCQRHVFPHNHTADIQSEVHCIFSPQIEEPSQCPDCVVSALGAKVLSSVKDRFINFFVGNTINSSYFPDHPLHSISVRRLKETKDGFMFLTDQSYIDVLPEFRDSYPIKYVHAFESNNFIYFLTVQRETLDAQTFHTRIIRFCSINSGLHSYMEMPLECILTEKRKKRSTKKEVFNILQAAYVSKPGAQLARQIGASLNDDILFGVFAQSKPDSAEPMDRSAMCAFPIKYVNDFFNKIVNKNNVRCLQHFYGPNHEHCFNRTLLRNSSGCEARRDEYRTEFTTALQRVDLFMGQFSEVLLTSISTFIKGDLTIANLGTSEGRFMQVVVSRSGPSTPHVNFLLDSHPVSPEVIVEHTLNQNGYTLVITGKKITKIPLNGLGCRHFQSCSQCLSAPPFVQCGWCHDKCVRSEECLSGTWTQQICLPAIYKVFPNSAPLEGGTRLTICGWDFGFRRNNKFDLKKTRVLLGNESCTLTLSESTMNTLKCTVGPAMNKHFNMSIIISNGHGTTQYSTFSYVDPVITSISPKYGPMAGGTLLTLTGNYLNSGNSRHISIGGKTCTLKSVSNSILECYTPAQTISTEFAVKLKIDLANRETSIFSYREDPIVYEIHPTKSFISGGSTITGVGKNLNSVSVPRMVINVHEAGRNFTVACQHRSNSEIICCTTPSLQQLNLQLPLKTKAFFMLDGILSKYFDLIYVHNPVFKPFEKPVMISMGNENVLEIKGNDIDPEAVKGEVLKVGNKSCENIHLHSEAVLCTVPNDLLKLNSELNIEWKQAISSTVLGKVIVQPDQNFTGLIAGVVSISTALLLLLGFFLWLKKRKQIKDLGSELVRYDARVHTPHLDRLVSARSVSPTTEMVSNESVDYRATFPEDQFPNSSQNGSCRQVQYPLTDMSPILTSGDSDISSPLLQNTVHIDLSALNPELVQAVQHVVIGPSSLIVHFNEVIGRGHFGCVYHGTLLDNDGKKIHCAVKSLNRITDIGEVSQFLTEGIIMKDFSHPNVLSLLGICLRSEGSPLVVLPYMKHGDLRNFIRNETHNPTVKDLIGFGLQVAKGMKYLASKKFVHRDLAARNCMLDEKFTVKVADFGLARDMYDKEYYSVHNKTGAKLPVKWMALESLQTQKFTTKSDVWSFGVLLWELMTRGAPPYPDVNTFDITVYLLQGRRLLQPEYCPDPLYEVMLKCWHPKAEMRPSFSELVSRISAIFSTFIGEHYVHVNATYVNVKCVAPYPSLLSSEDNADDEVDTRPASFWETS

Substance mIgG1-PE (antibody) showed a Mean fluorescence of 6.47.
